Here are results for one molecule from patent US20210253698A1 (AFFIMED, published 2021).

The assay has as its target T1, biotinylated, recombinant human CD16A(48R-158V) fused to human IgG1 Fc portion (human, UniProt P08637 17-208, limits assumed, biotinylated).
T1 construct: also called soluble CD16A antigen; recombinant human CD16A soluble antigen; not shown: human IgG1 Fc portion
Nature of the assay: ELISA, antibody coated, soluble biotinylated CD16A-Fc titrated.

T1 sequence (P08637 17-208 L66R/F176V limits assumed): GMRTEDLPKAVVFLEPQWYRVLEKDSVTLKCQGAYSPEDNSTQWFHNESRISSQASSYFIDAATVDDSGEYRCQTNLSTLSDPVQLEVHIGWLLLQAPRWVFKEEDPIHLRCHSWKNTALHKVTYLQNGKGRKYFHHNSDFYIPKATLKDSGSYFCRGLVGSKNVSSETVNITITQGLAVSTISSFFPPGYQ

B1: scDb-Tribody_01 (other)
VH: QVQLVQSGAEVKKPGESLKVSCKASGYTFTSYYMHWVRQAPGQGLEWMGIINPSGGSTSYAQKFQGRVTMTRDTSTSTVYMELSSLRSEDTAVYYCARGSAYYYDFADYWGQGTLVTVSS
VL: SYVLTQPSSVSVAPGQTATISCGGHNIGSKNVHWYQQRPGQSPVLVIYQDNKRPSGIPERFSGSNSGNTATLTISGTQAMDEADYYCQVWDNYSVLFGGGTKLTVL
notes: Trispecific; LSIV21 scDb VL-VL-VH-VH; HSA(N1) Fab, EGFR; no hinge; no Fc; Chains: anti-CD16A Fv only
What is called EC50 is the concentration at which the effect is half-maximal. Turning to B1, the EC50 came to 0.65 nM.
